The test system of test [1] is HIF-1α protein. In words: HIF-1α protein stability assays (cycloheximide treatment, pulse-chase) in PC-3 cells. To be noted: PC-3-Neo cells, within 20 minutes, CHX 10 μg/ml, normalized to α-tubulin. It counts as cell-based. The method, then: FIGS. 16a-c are Western blot analyses depicting the effect of cycloheximide (CHX) on the expression level of HIF-1α (FIG. 16a) and α-tubulin (FIG. 16b) in PC-3-Neo or PC-3-MSF-A cells grown under normoxia. CHX was added to PC-3-Neo (lanes 1-5) or PC-3-MSF-A (lanes 6-10) at a final concentration of 10 μg/ml, for 0 (lanes 1 and 6), 5 (lanes 2 and 7), 15 (lanes 3 and 8), 30 (lanes 4 and 9) and 45 (lanes 5 and 10) minutes. Whole cell extracts were prepared and resolved by SDS-PAGE and Western blotting was performed with antibodies against HIF-1α (FIG. 16a) or α-tubulin (FIG. 16b). FIG. 16c is a graph depicting quantitation of the results obtained in FIGS. 16a and b expressed as the ratio of HIF-1α expression level normalized to that of α-tubulin. Note, the relatively slow degradation of HIF-1α in cells over-expressing the MSF-A protein, with a degradation half-life of 40 minutes as compared to the degradation half-life of less than 20 minutes in PC-3-Neo cells (FIG. 16c).
FIGS. 17a-b depict pulse-chase analysis of HIF-1α. […] FIG. 17b-quantification of the autoradiographic HIF-1α signal by densitometry.
HIF-1α protein stability assays—Cells were plated into 6-well plates and grown to 70% confluence. […] Immunoprecipitates were analyzed on SDS-PAGE and visualized by autoradiography.

Test [2] deals with HIF-1α transcriptional activity. In words: HRE-dependent luciferase reporter gene assay in HEK 293 cells. It counts as cell-based. The conditions noted are these: transient transfection, hypoxia, compared with empty vector. Here is the method: FIG. 7 is a graph depicting luciferase activity (a reporter of HIF-1α transcriptional activation) as a function of the presence or absence of the N-terminus of the MSF-A protein. HEK 293 cells were co-transfected with 0.1 μg HRE-dependent luciferase reporter [pBI-GL V6L (Post, D. E., and Van Meir, E. G. 2001. Generation of bidirectional hypoxia/HIF-responsive expression vectors to target gene expression to hypoxic cells. Gene Ther 8, 1801-1807. Mabjeesh, N. J., et al., 2002, Geldanamycin induces degradation of hypoxia-inducible factor 1 alpha protein via the proteasome pathway in prostate cancer cells. Cancer Res 62, 2478-2482) and the wild type (WT) MSF-A (p3xFlag-MSF-A), ΔN-MSF-A (ΔN) (p3xFlag-ΔN-MSF-A) or empty vector (EV) (p3xFlag-cmv-25) constructs as follows: Experiment (Exp.) No. 1=1 μg EV; Exp. No. 2=0.5 μg EV and 0.5 μg WT; Exp. No. 3-1 μg WT; Exp. No. 4=0.5 μg EV and 0.5 μg ΔN; Exp. No. 5=1 μg ΔN. After 24 hours of transfection, cells were subjected to normoxia or hypoxia for overnight and then analyzed for luciferase luminescence assay. Luciferase activity is presented as relative units per μg protein in each experiment. Columns represent means; bars represent SD; n=3; *, p<0.05 compared to hypoxia of EV. Note the significant decrease of luciferase activity in cells grown under hypoxia and transfected with the N-terminus truncated form (ΔN) of MSF-A as compared with cells transfected with the wild-type form of MSF-A. Also note that under normoxia, when the luciferase activity is hardly detected, no significant difference is obtained.
FIG. 8 is a graph depicting luciferase activity (a reporter of HIF-1α transcriptional activation) as a function of the presence or absence of the GTP binding site of MSF-A (ΔG). HEK 293 cells were cotransfected with HRE-dependent luciferase reporter and the expression vector encoding wild-type MSF-A (WT) (p3xFlag-MSF-A), the deleted GTP binding site form of MSF-A (ΔG) (p3xFlag-ΔG-MSF-A) or empty vector (EV) (p3xFlag-cmv-25) and then were exposed to hypoxia conditions as described in the description of FIG. 4, hereinabove. Luciferase activity is presented as relative units per μg protein in each experiment. Columns represent means; bars represent SD; n=3. Note the non-significant effect of the ΔG-MSF-A on HIF-1α activity.
Reporter gene assay and luminescence measurements—HRE-dependent luciferase activity was performed using the pBI-GL construct (pBI-GL V6L) containing six tandem copies of the VEGF hypoxia response element as previously described (Mabjeesh et al., 2002; Post and Van Meir, 2001). […] Luciferase enzymatic activity was measured using the commercial kit TROPIX (Bedford, Mass.) in the Galaxy luminometer (BMG Labtechnologies LUMIstar) following the manufacturer's instructions. […]
On the technique in general: In a reporter assay the amount or activity of a reporter protein is the signal.

For test [3], the target named is T1, HIF-1α protein (Homo sapiens, UniProt Q16665).
T1 construct: expressed in transfected cells; host or cells: HEK 293
In words: Co-immunoprecipitation / immunoblotting with HIF-1α in transfected HEK 293 cells. In kind it is binding. The conditions noted are these: transient transfection. The method, then: FIGS. 9a-c are Western blot analyses of FLAG (MSF-A; FIGS. 9a and b) and HIF-1α (FIG. 9c) depicting the interaction between HIF-1α and the WT or deleted forms of MSF-A. HEK 293 cells were transiently co-transfected with expression vector encoding Flag-MSF-A (WT; p3xFlag-MSF-A), Flag-ΔG (AG; p3xFlag-ΔG-MSF-A), Flag-ΔN (ΔN; p3xFlag-ΔN-MSF-A) or empty vector (EV; p3xFlag-cmv-25). After 48 hours, the cells were lysed, subjected for immunoprecipitation (IP) using HIF-1α antibody and then immunoblotted (IB) with HIF-1α or Flag antibodies. FIG. 9a—whole cell extracts (WCE) subjected to IB with the Flag antibody (MSF-A); FIG. 9b—IP prepared by the HIF-1α antibody were subjected to IB with the Flag antibody (MSF-A); FIG. 9c—IP prepared by the HIF-1α antibody were subjected to IB with the HIF-1α antibody.
Immunoblotting—Proteins (30-60 μg/lane) from WCEs were resolved by 7.5% SDS-PAGE, electro-blotted to nitrocellulose membranes and incubated with the indicated primary antibodies, followed by horseradish peroxidase-conjugated secondary antiserum (Amersham Biosciences, Piscataway, N.J.). Immunoreactivity was visualized by Amersham enhanced chemiluminescence reagent (Amersham Biosciences, Piscataway, N.J.). For sequential blotting with additional antibodies, the membranes were stripped from the first primary antibody using a restore Western blot stripping buffer (Pierce, Rockford, Ill.) and were re-probed using the second primary antibody as indicated.
Immunoprecipitation—Cells were washed twice with ice-cold PBS, lysed in 20 mM Na-HEPES, pH 7.5, 0.5% Nonidet P-40, 0.1M NaCl, 2 mM EDTA, 10% Glycerol and 2 mM DTT supplemented with protease and phosphatase inhibitors, and were subjected to immunoprecipitation using anti-HIF-1α antibody and protein G-agarose beads (Pierce, Ill.) according to the manufacturer's instructions.
To confirm the interaction between the HIF-1α and the MSF-A proteins, HEK 293 cells were transiently co-transfected with the p3xFlag-MSF-A and the pcDNA3.1-HIF-1α vectors, and were grown for 24 hours under normoxic conditions (i.e., conditions of 20% oxygen), following which whole cell extracts (WCE) were subjected to co-immunoprecipitation (IP) using anti-FLAG or anti-HIF-1α antibodies. Following IP, the proteins were subjected to SDS-PAGE and immunoblotting (IB) using the counterpart antibody. As is shown in FIGS. 3a-d, following transfection with both expression vectors (i.e., pcDNA3.1-HIF-1α and p3xFlag-MSF-A) immunoprecipitates generated using either the anti-HIF-1α antibody or the anti-Flag antibody included the reciprocal proteins, i.e., the Flag-MSF-A or HIF-1α proteins, respectively.

“Also recorded” adds a separate entry of the source.

T1 sequence (Q16665 whole entry): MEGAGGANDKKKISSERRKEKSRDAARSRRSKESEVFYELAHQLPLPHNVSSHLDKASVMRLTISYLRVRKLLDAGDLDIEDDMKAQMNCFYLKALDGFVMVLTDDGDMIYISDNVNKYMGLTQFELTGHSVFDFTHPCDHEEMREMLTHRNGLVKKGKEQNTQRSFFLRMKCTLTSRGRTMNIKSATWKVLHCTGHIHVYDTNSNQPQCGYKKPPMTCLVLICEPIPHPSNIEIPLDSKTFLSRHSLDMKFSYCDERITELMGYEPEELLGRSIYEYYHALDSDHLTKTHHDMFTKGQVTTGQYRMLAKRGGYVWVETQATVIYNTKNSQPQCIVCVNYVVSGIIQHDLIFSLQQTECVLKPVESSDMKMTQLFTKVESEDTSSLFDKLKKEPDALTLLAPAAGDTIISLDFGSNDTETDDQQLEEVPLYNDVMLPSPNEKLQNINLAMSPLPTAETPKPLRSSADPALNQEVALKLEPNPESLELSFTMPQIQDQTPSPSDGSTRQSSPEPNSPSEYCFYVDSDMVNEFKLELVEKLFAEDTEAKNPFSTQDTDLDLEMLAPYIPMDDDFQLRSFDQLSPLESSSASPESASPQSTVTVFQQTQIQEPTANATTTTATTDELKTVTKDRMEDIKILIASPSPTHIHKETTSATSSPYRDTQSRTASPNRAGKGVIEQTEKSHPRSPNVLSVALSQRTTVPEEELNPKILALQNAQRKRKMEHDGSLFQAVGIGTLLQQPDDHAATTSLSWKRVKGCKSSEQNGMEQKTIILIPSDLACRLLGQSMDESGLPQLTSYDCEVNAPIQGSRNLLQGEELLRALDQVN

Turning to `C[C@@H]1C[C@@H]([C@H](O)CC2CC(=O)NC(=O)C2)C(=O)[C@@H](C)C1` [CHX, cycloheximide], the “HIF-1α protein levels after exposure to CHX” value in the test with HIF-1α protein [1] is “about 50%”.

B1: ΔN-MSF-A: N-terminal truncated MSF-A, deletion of the first 25 amino acids (SEQ ID NO:10, encoded by SEQ ID NO:7) (protein, listed as Homo sapiens)
chain: ALKRSFEVEEVETPNSTPPRRVQTPLLRATVASSTQKFQDLGVKNSEPSARHVDSLSQRSPKASLRRVELSGPKAAEPVSRRTELSIDISSKQVENAGAIGPSRFGLKRAEVLGHKTPEPAPRRTEITIVKPQESAHRRMEPPASKVPEVPTAPATDAAPKRVEIQMPKPAEAPTAPSPAQTLENSEPAPVSQLQSRLEPKPQPPVAEATPRSQEATEAAPSCVGDMADTPRDAGLKQAPASRNEKAPVDFGYVGIDSILEQMRRKAMKQGFEFNIMVVGQSGLGKSTLINTLFKSKISRKSVQPTSEERIPKTIEIKSITHDIEEKGVRMKLTVIDTPGFGDHINNENCWQPIMKFINDQYEKYLQEEVNINRKKRIPDTRVHCCLYFIPATGHSLRPLDIEFMKRLSKVVNIVPVIAKADTLTLEERVHFKQRITADLLSNGIDVYPQKEFDEDSEDRLVNEKFREMIPFAVVGSDHEYQVNGKRILGRKTKWGTIEVENTTHCEFAYLRDLLIRTHMQNIKDITSSIHFEAYRVKRLNEGSSAMANGVEEKEPEAPEM
modifications: 3xFlag tag
Turning to B1, the “HIF-1α transcriptional activity (luciferase reporter)” value in test [2] is “dose-dependent inhibition; also recorded: inhibition of HIF-1α activation below the level observed in cells transfected with the empty vector”. In addition, the figures for the “association with HIF-1α protein (co-immunoprecipitation)” value with HIF-1α protein [3], in the test with HIF-1α protein [3] (listed as N-terminal truncated form of MSF-A) and with HIF-1α protein [3] (listed as ΔN-MSF) were “capable of binding”, “unable to form a protein complex” and “co-immunoprecipitated”, respectively.

B2: ΔG-MSF-A: MSF-A mutant lacking the GTP binding domain, deletion of amino acids 305-312 GQSGLGKS (SEQ ID NO:4215) (protein, listed as Homo sapiens)
chain: MKKSYSGGTRTSSGRLRRLGDSSGPALKRSFEVEEVETPNSTPPRRVQTPLLRATVASSTQKFQDLGVKNSEPSARHVDSLSQRSPKASLRRVELSGPKAAEPVSRRTELSIDISSKQVENAGAIGPSRFGLKRAEVLGHKTPEPAPRRTEITIVKPQESAHRRMEPPASKVPEVPTAPATDAAPKRVEIQMPKPAEAPTAPSPAQTLENSEPAPVSQLQSRLEPKPQPPVAEATPRSQEATEAAPSCVGDMADTPRDAGLKQAPASRNEKAPVDFGYVGIDSILEQMRRKAMKQGFEFNIMVVTLINTLFKSKISRKSVQPTSEERIPKTIEIKSITHDIEEKGVRMKLTVIDTPGFGDHINNENCWQPIMKFINDQYEKYLQEEVNINRKKRIPDTRVHCCLYFIPATGHSLRPLDIEFMKRLSKVVNIVPVIAKADTLTLEERVHFKQRITADLLSNGIDVYPQKEFDEDSEDRLVNEKFREMIPFAVVGSDHEYQVNGKRILGRKTKWGTIEVENTTHCEFAYLRDLLIRTHMQNIKDITSSIHFEAYRVKRLNEGSSAMANGVEEKEPEAPEM
modifications: 3xFlag tag
In the case of B2, the “HIF-1α transcriptional activity (luciferase reporter)” value in test [2] was “no significant effect”; in test [2] (listed as ΔG-MSF) it was “lack of activation”. In addition, the results for the “association with HIF-1α protein (co-immunoprecipitation)” value with HIF-1α protein [3] and with HIF-1α protein [3] (listed as ΔG-MSF) were “capable of binding” and “co-immunoprecipitated”, respectively.
